# Reference: PMC11997501 (Molecular Therapy, 2025)
# B1: murine MLC1 (natural protein, mouse (endogenous in C57BL/6J brain), UniProt Q8VHK5 1-382, looked up)
# chain: MTREGQFREELGYDRMPTLERGRQDAGRQDPGSYTPDSKPKDLQLSKRLPPCFSYKTWVFSVLMGSCLLVTSGFSLYLGNVFPSEMDYLRCAAGSCIPSAIVSFAVGRRNVSAIPNFQILFVSTFAVTTTCLIWFGCKLILNPSAININFNLILLLLLELLMAATVIISARSSEEPCKKKKGSISDGSNILDEVTFPARVLKSYSVVEVIAGVSAVLGGVIALNVEEAVSGPHLSVTFFWILVACFPSAIASHVTAECPSKCLVEVLIAISSLTSPLLFTASGYLSFSVMRVVEIFKDYPPAIKSYDVLLLLLLLLLLLQGGLNTGTAIQCVSFKVSARLQAASWDPQSCPQERPAGEVVRGPLKEFDKEKAWRAVVVQMAQ
# Biological target: the molecule itself
# Experiment: western blot after SDS-PAGE of partially denatured samples
protein,measurement,value
B1,stoichiometry N,2
